Test results from the RNAGym collection of RNA variant scans (doi:10.7554/elife.90254).

B1: OR4K15 (parent)
chain: GUUAACGGUCAUAGGCCAUGGAAACUAGGAGCACCAUUUCGCUGCCAGUGAAGAAAUGAACAAAGAAAAUCUGGGCCAGGCAGGCAUCAAAAGAAAUAGUCUUGCGCUCAACCAGAAAGUCUGUAAUCAUUUUAAGGGUA

Variants of: B1
Experiment: self-cleavage, relative activity (ratio to wild type); higher = more cleavage; in vitro, sequencing; the parent is a self-cleaving ribozyme

Row | Variant | self-cleavage
1 | U57A U70C | 0.48
2 | U57C A60U | 1.78
3 | U57C A60G | 1.01
4 | U57A U102C | 0.78
5 | A56G A96U | 1.64
6 | G58A A60G | 1.51
7 | A56U A59G | 1.62
8 | A56G G79A | 0.1
9 | U57C A62G | 0.7
10 | A56G U108C | 0.01
11 | A56G A118G | 1.19
12 | U57G U87A | 1.47
13 | U57C U124G | 0.94
14 | U57C U124C | 0.59
15 | U57A G123C | 1.58
16 | U57A A68U | 1.15
17 | A56U A110U | 1
18 | A56U A96C | 0.35
19 | U57C U70C | 0.47
20 | U57G A64G | 0.9
21 | A56G U122C | 0.91
22 | U57A G106A | 0.01
23 | A56U A126G | 1.34
24 | A56U A126U | 0.81

Row | Variant | self-cleavage
25 | G58U A64G | 1.2
26 | A56G G115U | 0.03
27 | A56G G115A | 0.11
28 | U57A U131C | 1.07
29 | A56G A117G | 1.3
30 | U57A A82U | 0.31
31 | U57A A116U | 0.15
32 | U57A A116G | 0.94
33 | U57C U132C | 0.52
34 | U57G A126G | 0.52
35 | U57G A95G | 2.15
36 | U57G U130C | 0.44
37 | U57A A63G | 1.7
38 | U57A A91G | 0.54
39 | U57A U130A | 0.77
40 | U57A U139A | 0.91
41 | G58A A96G | 1.84
42 | U57A G136A | 1.37
43 | U57A U127A | 1.95
44 | U57A U127C | 0.65
45 | U57C U87C | 0.63
46 | U57G A78U | 0.22
47 | U57A C105U | 0.04
48 | G58U U124C | 0.25

Row | Variant | self-cleavage
49 | A56U U97C | 1.16
50 | G58A U102C | 2.39
51 | U57C G84A | 1.76
52 | U57C U100C | 1.83
53 | A56G U97A | 2.36
54 | A56G U100C | 2.18
55 | A56G A126G | 0.36
56 | U57C U122A | 1.35
57 | U57C U122C | 0.84
58 | A56G U102A | 0.97
59 | U57C C105U | 0.15
60 | U57C A117C | 0.7
61 | U57C A118U | 0.37
62 | U57C A118G | 0.43
63 | A56U U130C | 0.34
64 | A56G A111G | 0.01
65 | U57A A86G | 1.09
66 | U57A U132A | 0.7
67 | G58A A117G | 1.66
68 | A56G G83U | 0.73
69 | U57C G106A | 0
70 | U57A A125U | 1.1
71 | U57G U127C | 1.33
72 | U57A U108A | 0.03

Row | Variant | self-cleavage
73 | U57A U108C | 0.02
74 | G58U U120A | 1.17
75 | A56G A125U | 1.32
76 | A56G A125G | 0.51
77 | U57A G75A | 0.27
78 | A56G U133C | 1.43
79 | A56U A114U | 0.04
80 | A56U A114G | 0.36
81 | U57A A98G | 0.42
82 | U57A A98C | 1.24
83 | G58A U132C | 1.64
84 | U57A A59U | 2.2
85 | U57A A59G | 0.5
86 | A56G U87A | 1.54
87 | A56U U127C | 1.47
88 | U57G A129U | 1.78
89 | A59C A60G | 0.56
90 | U57C G73A | 0.15
91 | U57A A69C | 0.34
92 | U57A A69G | 0.95
93 | U57A A92G | 1.42
94 | A56U | 1.54
95 | A56G A110G | 0.07
96 | A56U C128A | 1.6

Row | Variant | self-cleavage
97 | U57C C121U | 2.46
98 | U57C C121A | 1.91
99 | G58U C107A | 0.03
100 | G58A A95G | 1.51
101 | U57A A78U | 0.16
102 | U57G A62G | 0.83
103 | A56G A114U | 0.08
104 | A56G A114C | 0.02
105 | A56G A114G | 0.31
106 | U57C G75A | 0.12
107 | U57C G75C | 0.17
108 | A56G C107A | 0.02
109 | G58U A68G | 0.92
110 | U57C A111G | 0.01
111 | U57C A111U | 0.08
112 | U57A A62G | 1.13
113 | A56G U132A | 2.05
114 | A56G G74U | 0.14
115 | A56G C128U | 0.54
116 | U57C C88U | 1.04
117 | U57C A94G | 1.62
118 | G58A A67G | 0.36
119 | G58A | 1.13
120 | G58U | 1.43

Row | Variant | self-cleavage
121 | A56G A95G | 1.69
122 | U57C A86U | 1.93
123 | U57C U120A | 2.01
124 | U57C U120C | 0.41
125 | A56G G119A | 2.09
126 | U57C C76U | 0.13
127 | U57A U100C | 2.19
128 | G58U A117G | 1.89
129 | G58U A111G | 0.02
130 | U57C U103C | 0.86
131 | U57A A66G | 0.73
132 | U57A A90G | 0.76
133 | U57C A82G | 0.49
134 | U57A A118G | 1.37
135 | G58U A126G | 0.8
136 | A56G U103C | 0.25
137 | A56G U103A | 0.04
138 | A56G A116G | 0.66
139 | U57C A64G | 0.81
140 | A56G U139C | 0.78
141 | A56G U139A | 1.41
142 | A56G A129G | 1.45
143 | A56G A129C | 1.03
144 | A56G U57A | 1.53

Row | Variant | self-cleavage
145 | U57C A69C | 0.84
146 | U57C A135G | 1.34
147 | U57C A92G | 0.71
148 | U57A U133C | 1.08
149 | A56G G106U | 0.01
150 | U57C A89U | 0.77
151 | U57C A140G | 1.11
152 | G58A A111G | 0
153 | A56G A140U | 2.1
154 | U57C U97A | 1.32
155 | U57C A114U | 0.05
156 | U57C A114C | 0.04
157 | U57C U108C | 0.01
158 | U57C U102A | 0.48
159 | U57C U102G | 0.29
160 | U57C U102C | 1.38
161 | A56G U120G | 1.98
162 | A56G U120C | 0.89
163 | U57G A68G | 1.53
164 | G58A U130C | 0.82
165 | G58U U102C | 1.68
166 | U57C A68G | 0.95
167 | U57C A59G | 0.57
